Key:
[1] = molecular target: K48-linked diubiquitin (Homo sapiens) (UniProt P0CG47); details: cited from earlier work
ubiquitin (Homo sapiens) = ubiquitin (Homo sapiens) (UniProt P0CG47); details: cited from earlier work
[2] = molecular target: K48-linked diubiquitin (ubiquitin_(K48R) joined to ubiquitin_(G76C)), fluorescently labelled (human) (UniProt P0CG47); assay: other fluorescence titration
[3] = molecular target: K63-linked diubiquitin (ubiquitin_(K63R) joined to ubiquitin_(G76C)), fluorescently labelled (human) (UniProt P0CG47); assay: other fluorescence titration
[4] = molecular target: ubiquitin_(G76C), fluorescently labelled (human) (UniProt P0CG47); assay: other fluorescence titration

S5a, sequence (P55036 whole entry): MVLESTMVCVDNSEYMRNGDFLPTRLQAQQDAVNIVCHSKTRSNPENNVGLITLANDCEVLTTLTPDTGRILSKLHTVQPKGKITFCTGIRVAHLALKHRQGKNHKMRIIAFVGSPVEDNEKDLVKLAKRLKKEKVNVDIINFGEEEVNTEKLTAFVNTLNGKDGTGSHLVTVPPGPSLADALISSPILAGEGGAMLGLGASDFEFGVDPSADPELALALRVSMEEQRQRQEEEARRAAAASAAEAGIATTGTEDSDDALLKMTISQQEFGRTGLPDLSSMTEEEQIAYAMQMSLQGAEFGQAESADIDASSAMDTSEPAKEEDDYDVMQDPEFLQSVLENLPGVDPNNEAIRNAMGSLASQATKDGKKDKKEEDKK

Substance	Kd [1] [µM]	Kd (ubiquitin (Homo sapiens)) [µM]	Kd [2] [µM]	Kd [3] [µM]	Kd [4] [µM]
S5a (from UniProt P55036)	8.9	73			
StoD (S. Typhi outer protein D), full-length, untagged (enzyme)			15	5.6	55
